This passage reports Km, kcat and kcat/Km results from PMC6327030, “Structure and inhibition mechanism of the catalytic domain of human squalene epoxidase” (Nature Communications, 2019).

The Km is the concentration of substrate that gives half-maximal velocity. For orientation: kcat means the maximal rate divided by the concentration of active sites. As usually defined, the kcat/Km is the turnover number divided by the Michaelis constant.

Substrate in data set [1]: CC(C)=CCC/C(C)=C/CC/C(C)=C/CC/C=C(\C)CC/C=C(\C)CCC=C(C)C
The data set can be described thus: cells, lysate or membranes named. To be noted: other: SQLE baculosome; varied squalene, saturating FAD; pH 7.0.

Substrate in data set [2]: CC(C)=CCC/C(C)=C/CC/C(C)=C/CC/C=C(\C)CC/C=C(\C)CCC=C(C)C
The data set can be described thus: purified protein, by the assay type. To be noted: varied squalene, saturating FAD.

B1: baculosome-derived full-length SQLE (Homo sapiens) (protein)
chain: MWTFLGIATFTYFYKKFGDFITLANREVLLCVLVFLSLGLVLSYRCRHRNGGLLGRQQSGSQFALFSDILSGLPFIGFFWAKSPPESENKEQLEARRRRKGTNISETSLIGTAACTSTSSQNDPEVIIVGAGVLGSALAAVLSRDGRKVTVIERDLKEPDRIVGEFLQPGGYHVLKDLGLGDTVEGLDAQVVNGYMIHDQESKSEVQIPYPLSENNQVQSGRAFHHGRFIMSLRKAAMAEPNAKFIEGVVLQLLEEDDVVMGVQYKDKETGDIKELHAPLTVVADGLFSKFRKSLVSNKVSVSSHFVGFLMKNAPQFKANHAELILANPSPVLIYQISSSETRVLVDIRGEMPRNLREYMVEKIYPQIPDHLKEPFLEATDNSHLRSMPASFLPPSSVKKRGVLLLGDAYNMRHPLTGGGMTVAFKDIKLWRKLLKGIPDLYDDAAIFEAKKSFYWARKTSHSFVVNILAQALYELFSATDDSLHQLRKACFLYFKLGGECVAGPVGLLSVLSPNPLVLIGHFFAVAIYAVYFCFKSEPWITKPRALLSSGAVLYKACSVIFPLIYSEMKYMVH
Regarding B1, in data set [1], the Km worked out at 3.3 ± 0.7 µM, the kcat amounted to 0.0233 s⁻¹ and the kcat/Km was 7080 M⁻¹ s⁻¹.

B2: endogenous SQLE in human liver microsomes (Homo sapiens) (protein)
chain: MWTFLGIATFTYFYKKFGDFITLANREVLLCVLVFLSLGLVLSYRCRHRNGGLLGRQQSGSQFALFSDILSGLPFIGFFWAKSPPESENKEQLEARRRRKGTNISETSLIGTAACTSTSSQNDPEVIIVGAGVLGSALAAVLSRDGRKVTVIERDLKEPDRIVGEFLQPGGYHVLKDLGLGDTVEGLDAQVVNGYMIHDQESKSEVQIPYPLSENNQVQSGRAFHHGRFIMSLRKAAMAEPNAKFIEGVVLQLLEEDDVVMGVQYKDKETGDIKELHAPLTVVADGLFSKFRKSLVSNKVSVSSHFVGFLMKNAPQFKANHAELILANPSPVLIYQISSSETRVLVDIRGEMPRNLREYMVEKIYPQIPDHLKEPFLEATDNSHLRSMPASFLPPSSVKKRGVLLLGDAYNMRHPLTGGGMTVAFKDIKLWRKLLKGIPDLYDDAAIFEAKKSFYWARKTSHSFVVNILAQALYELFSATDDSLHQLRKACFLYFKLGGECVAGPVGLLSVLSPNPLVLIGHFFAVAIYAVYFCFKSEPWITKPRALLSSGAVLYKACSVIFPLIYSEMKYMVH
On to B2, for which the Km in data set [2] (other: HLMs) came out at 2.9 ± 0.2 µM.

B3: recombinant N-terminally truncated SQLE (118–574) (Homo sapiens) (protein)
chain: TSSQNDPEVIIVGAGVLGSALAAVLSRDGRKVTVIERDLKEPDRIVGEFLQPGGYHVLKDLGLGDTVEGLDAQVVNGYMIHDQESKSEVQIPYPLSENNQVQSGRAFHHGRFIMSLRKAAMAEPNAKFIEGVVLQLLEEDDVVMGVQYKDKETGDIKELHAPLTVVADGLFSKFRKSLVSNKVSVSSHFVGFLMKNAPQFKANHAELILANPSPVLIYQISSSETRVLVDIRGEMPRNLREYMVEKIYPQIPDHLKEPFLEATDNSHLRSMPASFLPPSSVKKRGVLLLGDAYNMRHPLTGGGMTVAFKDIKLWRKLLKGIPDLYDDAAIFEAKKSFYWARKTSHSFVVNILAQALYELFSATDDSLHQLRKACFLYFKLGGECVAGPVGLLSVLSPNPLVLIGHFFAVAIYAVYFCFKSEPWITKPRALLSSGAVLYKACSVIFPLIYSEMKYMVH
As to B3, in data set [2] (other: SQLE (118–574), pH 8.0), the Km turned out to be 1.9 ± 0.4 µM, the kcat turned out to be 0.0348 s⁻¹ and the kcat/Km is 18300 M⁻¹ s⁻¹.
